Source: paper PMC6582406 (Nucleic Acids Research, 2019)

Target: the molecule itself
Assay: SEC

B1: EBOV VP35 fused with maltose-binding protein at its N-terminal (MBP–VP35) (natural protein)
chain: MTTRTKGRGHTAATTQNDRMPGPELSGWISEQLMTGRIPVSDIFCDIENNPGLCYASQMQQTKPNPKTRNSQTQTDPICNHSFEEVVQTLASLATVVQQQTIASESLEQRITSLENGLKPVYDMAKTISSLNRVCAEMVAKYDLLVMTTGRATATAAATEAYWAEHGQPPPGPSLYEESAIRGKIESRDETVPQSVREAFNNLNSTTSLTEENFGKPDISAKDLRNIMYDHLPGFGTAFHQLVQVICKLGKDSNSLDIIHAEFQASLAEGDSPQCALIQITKRVPIFQDAAPPVIHIRSRGDIPRACQKSLRPVPPSPKIDRGWVCVFQLQDGKTLGLKI
  binding result: binds
